Experimental data published in publication PMC5030355.

Tested on: RIG-I (recombinant)
Test: filter binding
Settings: 25 mM Tris-HCl pH 7.5, 150 mM NaCl, 1.5 mM MgCl2, room temperature, filter binding with 600 nM BSA, 30 min, pull-down in lysate with 0.5% Triton X-100

For polyU/UC RNA 2'FdU, the Kd (2'-fluoro-deoxyuridine substituted for U) was 29 nM.
With polyU/UC RNA canonical the Kd was 186 nM.
In the case of polyU/UC RNA m6A, the Kd (N6-methyladenosine substituted for A) is reported as greater than 1070 nM.
For polyU/UC RNA pseudouridine, the Kd (pseudouridine substituted for U) was 255 nM.
